Results on two molecules are retold here after publication PMC7392006, “Demethylase-independent function of JMJD2D as a novel antagonist of p53 to promote Liver Cancer initiation and progression”.

The data set deals with p53 (recombinant, Active Motif 81091) (Homo sapiens, UniProt P04637 1-393). Description: EMSA; no JMJD2D; 5 mM Hepes pH 7.6, 100 mM KCl, 5 mM MgCl2, 1.25 mM DTT, 0.05% NP-40, 2.25% glycerol, 1 ug poly(dI.dC); 6% polyacrylamide gel; temperature not stated. To be noted: protein: commercial; chain copies: 4; label: biotin end label; blunt.
Chain of p53 (recombinant, Active Motif 81091) (P04637 whole entry): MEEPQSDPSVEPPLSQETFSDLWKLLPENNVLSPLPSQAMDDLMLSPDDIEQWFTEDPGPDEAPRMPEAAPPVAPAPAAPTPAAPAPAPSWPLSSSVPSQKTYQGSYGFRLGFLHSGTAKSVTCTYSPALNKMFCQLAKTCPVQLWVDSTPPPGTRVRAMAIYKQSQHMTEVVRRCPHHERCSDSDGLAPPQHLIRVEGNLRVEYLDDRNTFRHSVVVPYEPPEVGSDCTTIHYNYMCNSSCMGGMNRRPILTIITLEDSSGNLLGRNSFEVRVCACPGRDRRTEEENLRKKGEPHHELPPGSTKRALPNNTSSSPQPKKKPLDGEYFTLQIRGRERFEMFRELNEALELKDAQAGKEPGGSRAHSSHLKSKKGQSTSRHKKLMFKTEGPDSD

B1: p21 promoter p53 element (dsDNA)
DNA 1: CTGGCCGTCAGGAACATGTCCCAACATGTTGAGCTCT
DNA 2: AGAGCTCAACATGTTGGGACATGTTCCTGACGGCCAG
In the case of B1, the binding result is “binds”.

B2: PUMA promoter p53 element (dsDNA)
DNA 1: GCGCGCCTGCAAGTCCTGACTTGTCCGCGGCG
DNA 2: CGCCGCGGACAAGTCAGGACTTGCAGGCGCGC
Take B2: the binding result was “binds”.
